# B1: active human recombinant caspase-3 (CHEMICON) (protein)
# chain: SGISLDNSYKMDYPEMGLCIIINNKNFHKSTGMTSRSGTDVDAANLRETFRNLKYEVRNKNDLTREEIVELMRDVSKEDHSKRSSFVCVLLSHGEEGIIFGTNGPVDLKKITNFFRGDRCRSLTGKPKLFIIQACRGTELDCGIETDSGVDDDMACHKIPVEADFLYAYSTAPGYYSWRNSKDGSWFIQSLCAMLKQYADKLEFMHILTRVNRKVATEFESFSFDATFHAKKQIPCIVSMLTKELYFYH
# Target: Recombinant human GST-TDP-43 (N-terminal GST tag, full length), non-phosphorylated
# Sequence (chain, as listed by the source): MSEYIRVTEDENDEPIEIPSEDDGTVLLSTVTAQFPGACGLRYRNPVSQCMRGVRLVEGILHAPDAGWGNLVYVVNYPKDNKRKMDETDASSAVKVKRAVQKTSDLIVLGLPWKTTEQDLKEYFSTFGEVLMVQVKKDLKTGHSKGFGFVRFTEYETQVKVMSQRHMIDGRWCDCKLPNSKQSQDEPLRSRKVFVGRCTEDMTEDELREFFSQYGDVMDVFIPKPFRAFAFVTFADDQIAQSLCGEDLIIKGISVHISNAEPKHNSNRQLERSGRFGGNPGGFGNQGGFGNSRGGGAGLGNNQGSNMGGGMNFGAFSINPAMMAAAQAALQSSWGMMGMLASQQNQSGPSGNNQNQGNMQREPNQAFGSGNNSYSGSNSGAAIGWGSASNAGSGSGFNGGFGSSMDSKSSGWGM
protein,measurement,value
B1,"in vitro cleavage, SDS-PAGE stained with Coomassie","cleavage of full length TDP-43 by purified cleaved caspase-3, resulting in three distinct fragments of approximately 42, 35, and 25 kD"

# Reference: patent US20100136573
